{"source": "patent US20120316071A1", "about": "(published 2012)", "key": {"[1]": {"target": "T1, Recombinant Human DLL4 (R&D Systems Cat#1506-D4/CF) (human, UniProt Q9NR61 27-524)", "T1 construct": "Bought recombinant protein; also called delta-like protein 4", "experiment": "ECL multispot (MSD) assay, spotted antigen; Fab 2.00 (head prints uM)"}, "[2]": {"target": "T2, rHuman HGF R/c-MET/Fc Chimera, CF (R&D Systems Cat#358-MT/CF) (human, UniProt P08581 25-932)", "T2 construct": "Bought recombinant protein; also called HGF R/Fc; Fc part of the bought chimera not given", "experiment": "ECL multispot (MSD) assay, spotted antigen; Fab 2.00 (head prints uM)"}, "[3]": {"target": "T3, rHuman EGF R/Fc Chimera, CF (R&D Systems Cat#344-ER) (human, UniProt P00533 25-645)", "T3 construct": "Bought reagent; also called epidermal growth factor receptor", "experiment": "MSD multispot ECL, antigen spotted, Fab 37.2 nM; blank spot 199"}, "[4]": {"target": "T4, Recombinant Human DLL4 (R&D Systems Cat#1506-D4/CF) (human, UniProt Q9NR61 27-524)", "T4 construct": "Bought recombinant protein; also called rHuman DLL4; delta-like protein 4", "experiment": "MSD multispot ECL, antigen spotted, Fab 37.2 nM; blank spot 199"}, "[5]": {"target": "T5, rHuman HGF R/c-MET/Fc Chimera, CF (R&D Systems Cat#358-MT/CF) (human, UniProt P08581 25-932)", "T5 construct": "Bought reagent; also called HGF R/Fc; hepatocyte growth factor receptor", "experiment": "MSD multispot ECL, antigen spotted, Fab 37.2 nM; blank spot 199"}, "[6]": {"target": "T6, rHuman CD44/Fc Chimera, CF (R&D Systems Cat#3660-CD) (human, UniProt P16070 21-220)", "T6 construct": "Bought reagent", "experiment": "MSD multispot ECL, antigen spotted, Fab 37.2 nM; blank spot 199"}, "[7]": {"target": "T7, rHuman ErbB2/Fc Chimera, CF (R&D Systems Cat#1129-ER) (human, UniProt P04626 23-652)", "T7 construct": "Bought reagent; also called human epidermal growth factor 2 receptor", "experiment": "MSD multispot ECL, antigen spotted, Fab 37.2 nM; blank spot 199"}, "[8]": {"target": "T8, rHuman Notch-1/Fc Chimera, CF (R&D Systems Cat#3647-TK) (human, UniProt P46531 19-526)", "T8 construct": "Bought reagent", "experiment": "MSD multispot ECL, antigen spotted, Fab 37.2 nM; blank spot 199"}, "[9]": {"target": "T9, rHuman Erythropoietin R/Fc Chimera, CF (R&D Systems Cat#963-ER) (human, UniProt P19235 25-250)", "T9 construct": "Bought reagent; also called EPO R/Fc; Epo R", "T9 sequence (looked up)": "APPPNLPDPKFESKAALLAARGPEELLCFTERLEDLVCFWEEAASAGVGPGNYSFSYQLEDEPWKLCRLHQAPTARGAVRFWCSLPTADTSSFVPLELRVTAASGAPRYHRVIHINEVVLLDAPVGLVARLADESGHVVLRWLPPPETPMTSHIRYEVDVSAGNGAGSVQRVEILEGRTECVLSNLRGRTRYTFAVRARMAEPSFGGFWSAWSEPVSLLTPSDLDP", "experiment": "MSD multispot ECL, antigen spotted, Fab 37.2 nM; blank spot 199"}, "[10]": {"target": "T10, rHuman IGF-1 sR, (IGF-1 sR), CF (R&D Systems Cat#391-GR) (human, UniProt P08069 31-932)", "T10 construct": "Bought soluble receptor; also called insulin-like growth factor-1 soluble receptor", "experiment": "MSD multispot ECL, antigen spotted, Fab 37.2 nM; blank spot 199"}, "[11]": {"target": "T3, rHuman EGF R/Fc Chimera, CF (R&D …)", "experiment": "MSD multispot ECL, antigen spotted, Fab 0.6 nM; blank spot 226"}, "[12]": {"target": "T4, Recombinant Human DLL4 (R&D Systems …)", "experiment": "MSD multispot ECL, antigen spotted, Fab 0.6 nM; blank spot 226"}, "[13]": {"target": "T5, rHuman HGF R/c-MET/Fc Chimera, CF (R&D …)", "experiment": "MSD multispot ECL, antigen spotted, Fab 0.6 nM; blank spot 226"}, "[14]": {"target": "T6, rHuman CD44/Fc Chimera, CF (R&D Systems …)", "experiment": "MSD multispot ECL, antigen spotted, Fab 0.6 nM; blank spot 226"}, "[15]": {"target": "T7, rHuman ErbB2/Fc Chimera, CF (R&D …)", "experiment": "MSD multispot ECL, antigen spotted, Fab 0.6 nM; blank spot 226"}, "[16]": {"target": "T8, rHuman Notch-1/Fc Chimera, CF (R&D …)", "experiment": "MSD multispot ECL, antigen spotted, Fab 0.6 nM; blank spot 226"}, "[17]": {"target": "T9, rHuman Erythropoietin R/Fc Chimera, CF …", "experiment": "MSD multispot ECL, antigen spotted, Fab 0.6 nM; blank spot 226"}, "[18]": {"target": "T10, rHuman IGF-1 sR, (IGF-1 sR), CF (R&D …)", "experiment": "MSD multispot ECL, antigen spotted, Fab 0.6 nM; blank spot 226"}, "[19]": {"target": "T11, Recombinant Human DLL4 (R&D Systems Cat#1506-D4/CF) (human, UniProt Q9NR61 27-524)", "T11 construct": "Bought recombinant protein; also called rHuman DLL4; delta-like protein 4", "experiment": "MSD Multispot ECL, antigen spotted on plate, Fab at 7.5 nM; blank spot 217"}, "[20]": {"target": "T12, rHuman CD44/Fc Chimera, CF (R&D Systems Cat#3660-CD) (human, UniProt P16070 21-220)", "T12 construct": "Bought Fc chimera; Fc part of the bought chimera not given", "experiment": "MSD Multispot ECL, antigen spotted on plate, Fab at 7.5 nM; blank spot 217"}}, "data": [{"binder": "Fab VH5-51_IGHD5-18*01>3_IGHJ4*01 G100K/G104T & V3-4_IGLJ1*01 (Fab, V domains shown, Tested as a Fab; The constant parts are the same as for the parent Fab (CH1 with His6/Flag tags, lambda CL); also called KT double mutant; H:KT) VH: EVQLVQSGAEVKKPGESLKISCKGSGYSFTSYWIGWVRQMPGKGLEWMGIIYPGDSDTRYSPSFQGQVTISADKSISTAYLQWSSLKASDTAMYYCARRKYSYTYDYFDYWGQGTLVTVSS VL: QTVVTQEPSFSVSPGGTVTLTCGLSSGSVSTSYYPSWYQQTPGQAPRTLIYSTNTRSSGVPDRFSGSILGNKAALTITGAQADDESDYYCVLYMGSGISYVFGTGTKVTVL", "values": [{"measurement": "ECL signal/noise ratio", "setting": "[1]", "result": 72.7}, {"measurement": "ECL signal/noise ratio", "setting": "[2]", "result": 6}]}, {"binder": "Fab VH1-46_IGHD6-6*01_IGHJ1*01 & L6_IGKJ1*01 (Fab, V domains shown, Only variable domains are tied to the molecule; Tested as a Fab made in E. coli: heavy chain from Plasmid A (CH1 constant region, His6 and Flag tags), kappa light chain from Plasmid C (kappa CL); also called parent Hit Fab against DLL4; VH1-46_IGHD6-6*01_IGHJ1*01 & L6_IGKJ1*01 (parental)) VH: QVQLVQSGAEVKKPGASVKVSCKASGYTFTSYYMHWVRQAPGQGLEWMGIINPSGGSTSYAQKFQGRVTMTRDTSTSTVYMELSSLRSEDTAVYYCAREEYSSSSAEYFQHWGQGTLVTVSS VL: not shown", "values": [{"measurement": "ECL signal", "setting": "[3]", "result": 228, "unit": "ECL signal"}, {"measurement": "ECL signal", "setting": "[4]", "result": 16700, "unit": "ECL signal"}, {"measurement": "ECL signal", "setting": "[5]", "result": 207, "unit": "ECL signal"}, {"measurement": "ECL signal", "setting": "[6]", "result": 356, "unit": "ECL signal"}, {"measurement": "ECL signal", "setting": "[7]", "result": 384, "unit": "ECL signal"}, {"measurement": "ECL signal", "setting": "[8]", "result": 402, "unit": "ECL signal"}, {"measurement": "ECL signal", "setting": "[9]", "result": 315, "unit": "ECL signal"}, {"measurement": "ECL signal", "setting": "[10]", "result": 295, "unit": "ECL signal"}, {"measurement": "ECL signal", "setting": "[11]", "result": 309, "unit": "ECL signal"}, {"measurement": "ECL signal", "setting": "[12]", "result": 508, "unit": "ECL signal"}, {"measurement": "ECL signal", "setting": "[13]", "result": 256, "unit": "ECL signal"}, {"measurement": "ECL signal", "setting": "[14]", "result": 238, "unit": "ECL signal"}, {"measurement": "ECL signal", "setting": "[15]", "result": 215, "unit": "ECL signal"}, {"measurement": "ECL signal", "setting": "[16]", "result": 337, "unit": "ECL signal"}, {"measurement": "ECL signal", "setting": "[17]", "result": 337, "unit": "ECL signal"}, {"measurement": "ECL signal", "setting": "[18]", "result": 313, "unit": "ECL signal"}]}, {"binder": "Fab VH6-1_IGHD3-3*01_IGHJ4*01 & V4-3_IGLJ4*01 (Fab, V domains shown, Tested as a purified germline Fab made in E. coli; The VH was cloned into plasmid A (CH1 constant region, His6 and Flag tags) and the lambda VL into plasmid E (lambda CL)) VH: QVQLQQSGPGLVKPSQTLSLTCAISGDSVSSNSAAWNWIRQSPSRGLEWLGRTYYRSKWYNDYAVSVKSRITINPDTSKNQFSLQLNSVTPEDTAVYYCAREYYDFWSGYYTDYFDYWGQGTLVTVSS VL: QPVLTQPTSLSASPGASARLTCTLRSGINLGSYRIFWYQQKPESPPRYLLSYYSDSSKHQGSGVPSRFSGSKDASSNAGILVISGLQSEDEADYYCMIWHSSASFVFGGGTQLIIL", "values": [{"measurement": "ECL signal", "setting": "[19]", "result": 598}, {"measurement": "ECL signal", "setting": "[20]", "result": 444}]}]}
